These results are taken from patent US6638503.

In series [1] the test system is bovine serum albumin, haemoglobin, fibrinogen and thrombin.
A further series deals with Bovine serum albumin (UniProt P02769).
The target in a further series is Human fibrinogen (UniProt P02671).
Sequence of Human fibrinogen (P02671 20-629, chain 1 of 3): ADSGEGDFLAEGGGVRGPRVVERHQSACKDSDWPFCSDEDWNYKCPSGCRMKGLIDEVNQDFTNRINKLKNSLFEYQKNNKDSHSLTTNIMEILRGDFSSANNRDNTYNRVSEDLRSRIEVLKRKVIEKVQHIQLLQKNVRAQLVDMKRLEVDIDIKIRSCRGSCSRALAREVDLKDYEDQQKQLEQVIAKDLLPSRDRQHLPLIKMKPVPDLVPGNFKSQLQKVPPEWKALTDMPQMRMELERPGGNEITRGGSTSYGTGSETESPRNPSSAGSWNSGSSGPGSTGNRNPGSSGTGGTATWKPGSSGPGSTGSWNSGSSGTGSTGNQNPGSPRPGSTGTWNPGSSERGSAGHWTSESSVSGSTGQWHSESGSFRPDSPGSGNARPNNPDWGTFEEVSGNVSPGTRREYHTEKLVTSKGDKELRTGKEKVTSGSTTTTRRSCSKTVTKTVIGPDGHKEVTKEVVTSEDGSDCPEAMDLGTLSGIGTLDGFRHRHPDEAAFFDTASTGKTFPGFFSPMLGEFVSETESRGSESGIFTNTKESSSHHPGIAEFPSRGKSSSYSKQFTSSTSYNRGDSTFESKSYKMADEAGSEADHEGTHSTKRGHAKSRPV
Sequence of Human fibrinogen (chain, as listed by the source, chain 2 of 3): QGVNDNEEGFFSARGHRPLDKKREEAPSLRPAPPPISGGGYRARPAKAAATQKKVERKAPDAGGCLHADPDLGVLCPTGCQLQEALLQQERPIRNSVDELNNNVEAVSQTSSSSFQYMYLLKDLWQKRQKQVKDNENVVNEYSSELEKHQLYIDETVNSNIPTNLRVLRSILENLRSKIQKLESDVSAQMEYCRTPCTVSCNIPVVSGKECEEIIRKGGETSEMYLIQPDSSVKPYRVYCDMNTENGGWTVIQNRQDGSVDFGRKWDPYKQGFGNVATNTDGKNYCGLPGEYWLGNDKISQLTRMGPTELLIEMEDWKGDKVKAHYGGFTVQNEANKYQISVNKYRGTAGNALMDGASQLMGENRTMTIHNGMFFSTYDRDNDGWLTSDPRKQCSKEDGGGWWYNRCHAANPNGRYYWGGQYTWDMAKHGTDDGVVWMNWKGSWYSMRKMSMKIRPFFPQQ
Sequence of Human fibrinogen (chain, as listed by the source, chain 3 of 3): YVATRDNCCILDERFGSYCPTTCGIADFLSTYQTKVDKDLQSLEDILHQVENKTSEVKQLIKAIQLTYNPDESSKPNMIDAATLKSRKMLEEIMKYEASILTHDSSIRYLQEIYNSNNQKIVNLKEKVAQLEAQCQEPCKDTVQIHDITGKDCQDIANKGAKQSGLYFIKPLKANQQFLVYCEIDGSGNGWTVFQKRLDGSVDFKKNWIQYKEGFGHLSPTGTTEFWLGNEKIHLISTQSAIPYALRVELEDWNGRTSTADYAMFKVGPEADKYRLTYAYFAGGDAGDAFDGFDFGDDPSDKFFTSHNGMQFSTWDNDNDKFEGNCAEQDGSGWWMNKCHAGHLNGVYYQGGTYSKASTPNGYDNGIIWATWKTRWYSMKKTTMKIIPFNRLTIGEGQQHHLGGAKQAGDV

Sequence of Bovine serum albumin (P02769 25-607): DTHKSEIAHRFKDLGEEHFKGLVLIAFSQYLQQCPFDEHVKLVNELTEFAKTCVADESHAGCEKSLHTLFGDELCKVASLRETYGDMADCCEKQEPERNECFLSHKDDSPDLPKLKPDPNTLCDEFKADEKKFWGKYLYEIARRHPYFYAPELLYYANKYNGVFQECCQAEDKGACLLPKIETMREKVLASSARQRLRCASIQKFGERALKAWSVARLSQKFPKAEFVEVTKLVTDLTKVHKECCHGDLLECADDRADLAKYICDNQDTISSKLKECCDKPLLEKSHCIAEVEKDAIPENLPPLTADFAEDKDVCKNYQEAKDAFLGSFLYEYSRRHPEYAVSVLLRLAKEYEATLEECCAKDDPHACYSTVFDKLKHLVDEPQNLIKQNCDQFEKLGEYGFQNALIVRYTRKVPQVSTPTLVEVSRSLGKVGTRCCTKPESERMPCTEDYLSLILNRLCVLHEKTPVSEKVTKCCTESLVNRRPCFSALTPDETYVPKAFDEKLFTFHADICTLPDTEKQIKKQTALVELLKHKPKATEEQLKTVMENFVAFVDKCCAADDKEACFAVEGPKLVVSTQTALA
Sequence of plasminogen (chain, as listed by the source): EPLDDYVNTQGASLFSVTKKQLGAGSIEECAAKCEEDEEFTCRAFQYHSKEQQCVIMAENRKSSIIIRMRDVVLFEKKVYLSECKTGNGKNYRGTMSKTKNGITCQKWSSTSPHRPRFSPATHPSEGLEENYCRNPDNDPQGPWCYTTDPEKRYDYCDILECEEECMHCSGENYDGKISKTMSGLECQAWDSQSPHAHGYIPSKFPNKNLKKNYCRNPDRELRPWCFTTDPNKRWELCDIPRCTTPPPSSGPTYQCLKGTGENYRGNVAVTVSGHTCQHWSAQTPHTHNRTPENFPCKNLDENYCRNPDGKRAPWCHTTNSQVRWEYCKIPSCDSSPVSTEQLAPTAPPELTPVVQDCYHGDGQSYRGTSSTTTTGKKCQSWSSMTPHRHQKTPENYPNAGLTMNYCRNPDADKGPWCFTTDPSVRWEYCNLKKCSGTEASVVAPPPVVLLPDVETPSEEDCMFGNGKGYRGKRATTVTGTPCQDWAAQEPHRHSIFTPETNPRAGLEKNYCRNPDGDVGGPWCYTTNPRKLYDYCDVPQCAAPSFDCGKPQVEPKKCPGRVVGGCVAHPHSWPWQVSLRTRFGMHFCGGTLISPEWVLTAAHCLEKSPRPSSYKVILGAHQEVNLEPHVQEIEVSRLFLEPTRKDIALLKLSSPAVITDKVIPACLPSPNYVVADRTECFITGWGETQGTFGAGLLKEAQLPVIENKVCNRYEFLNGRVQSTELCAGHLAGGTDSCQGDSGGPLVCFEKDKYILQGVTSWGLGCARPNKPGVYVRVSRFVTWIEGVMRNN

Turning to “actinokinase (fibrinolytic enzyme from Streptomyces megasporus SD5)”, the Relative activity (%) in the series with Fibrin turned out to be 100%; with Hemoglobin, 8%; in the series with Bovine serum albumin, 32%; with Thrombin, 27%; with Human fibrinogen it was 12%. The fibrinolytic activity in the series with Fibrin is reported as 1.0×10^3 µmole/ tyrosine mg^-1 protein min^-1. Besides, the “proteolytic activity, % of the control” value in series [1] was “varied from 5-30% of the control”. For the same substance, the caseinolytic activity in the series with casein was 1.0×10^2 µmole/tyrosine mg^-1 protein min^-1. Besides, in the series on plasminogen, the “amidolytic activity with and without added plasminogen” value was “Amydolytic activity exhibited by the enzyme was same in presence and absence of plasminogen”.
